Here are results for 3 molecules from PMC3832608.

The target in this experiment is T1, Corticotropin Releasing Factor receptor 2 (CRF2) (human (endogenous in HT-29)) (UniProt Q13324).
T1 sequence: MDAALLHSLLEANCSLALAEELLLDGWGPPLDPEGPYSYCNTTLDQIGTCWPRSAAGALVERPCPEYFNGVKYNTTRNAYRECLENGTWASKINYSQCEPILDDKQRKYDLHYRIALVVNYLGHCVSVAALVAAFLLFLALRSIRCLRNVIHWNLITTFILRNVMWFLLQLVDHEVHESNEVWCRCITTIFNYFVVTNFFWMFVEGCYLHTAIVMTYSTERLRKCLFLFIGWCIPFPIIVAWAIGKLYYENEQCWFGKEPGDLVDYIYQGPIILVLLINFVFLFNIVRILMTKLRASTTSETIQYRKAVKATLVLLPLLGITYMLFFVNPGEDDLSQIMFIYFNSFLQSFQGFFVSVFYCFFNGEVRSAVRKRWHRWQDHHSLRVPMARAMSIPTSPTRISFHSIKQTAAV

B1: Urocortin 2 (Ucn2) (peptide)
peptide: IVLSLDVPIGLLQILLEQARARAAREQATTNARILARVGHC
For B1, the cAMP production by HT-29 cells treated with 1 µM Ucn2 (ELISA kit); completely reversed by 1 µM astressin2b (A2b) (pM of cAMP/10^5 cells) was found to be 1.

B2: Corticotropin releasing factor (CRF) (peptide)
peptide: SEEPPISLDLTFHLLREVLEMARAEQLAQQAHSNRKLMEIIGK
For the molecule B2, the cAMP production by HT-29 cells treated with 1 µM CRF (ELISA kit); completely reversed by 1 µM astressin2b (A2b) (pM of cAMP/10^5 cells) came to 0.5.

B3: Urocortin 3 (Ucn3) (peptide)
peptide: FTLSLDVPTNIMNLLFNIAKAKNLRAQAAANAHLMAQI
On to B3, for which the cAMP production by HT-29 cells treated with 1 µM Ucn3 (ELISA kit); completely reversed by 1 µM astressin2b (A2b) (pM of cAMP/10^5 cells) stood at 2.4.
